# Numbered stars: 1 amine (or outer) side, 2 acyl side, 3 side chain; on linkers, the order of the positions; unused ones are H or OH. Bridge positions count the residues as written; N and C are the ends. Square brackets hold non-standard residues; d marks the D form. I, II: the chains in the order shown. X1 = CC(C)CCC[C@@H](C)[C@H]1CC[C@H]2[C@@H]3CC=C4C[C@@H](OC(=O)NCCOCCOCCOCCOCCC(=O)NCCOCCOCCOCCOCCOCCOCCOCCOCCOCCOCCOCCOCCOCCOCCOCCOCCOCCOCCOCCOCCOCCOCCOCCOCCOCCOCCOCCOCCC(=O)NC(CCC(=O)[*:1])(CCC(=O)[*:2])CCC(=O)[*:3])CC[C@]4(C)[C@H]3CC[C@]12C; PEG4 = NCCOCCOCCOCCOCCC(=O)O
# Experiments:
# [1] = system: JRFL (R5) luciferase reporter pseudovirions on HOS-CD4-CCR5; assay: Pseudovirion entry assay, JRFL; type: cell-based, HIV-1
# Experimental: Pseudovirion assays were performed as previously described (Welch et al., 2010, J. Virol. 84:11235-44; Welch et al., 2007, Proc. Natl. Acad. Sci. 104:16827-16833, each of which is incorporated herein by reference in its entirety). Briefly, a six-point dilution series of each inhibitor was generated in quadruplicate on HOS-CD4-CXCR4 (for HXB2) or HOS-CD4-CCR5 (for JRFL) monolayers in 96 well plates, after which HXB2 (X4) or JRFL (R5) luciferase reporter pseudovirions were added. After 2 days, cells were lysed using GloLysis buffer (Promega) and BrightGlo luciferase substrate (Promega) was added. Luminescence was read on a PolarStar Optima (BMG) plate reader and normalized to uninhibited controls. Inhibition curves were plotted and fit to a standard IC50 equation for normalized data [(1−c/(IC50+c)], weighting each point by its standard error using KaleidaGraph (Synergy Software). Reported IC50 values are the average of at least two independent quadruplicate assays.
# [2] = Rat pharmacokinetics of cholesterol conjugates, Calvert study (Table 4 protocol); conditions: for bioavailability: male
# Experimental: For PIE12 monomer conjugates, in-life studies were performed by Invitek (Hayward, Calif.). Trimeric conjugate in-life studies were performed at Navigen (Salt Lake City, Utah). […] At each timepoint, plasma was obtained using lithium heparin. […] Plasma samples were stored at −80° C. and shipped prior to bioanalysis.
# The column temperature was maintained at 70° C.
# Fifty microliter aliquots of plasma for each time point was precipitated with 2.5 volumes of ice-cold acetonitrile containing 2% trifluoroacetic acid (v/v) and 370 nM CPT12 as internal standard. […] The column temperature was maintained at 70° C.
# CPT31 in Rat Plasma-Calvert Study
# Fifty microliter aliquots of plasma for each time point was precipitated with 5 volumes of ice-cold acetonitrile containing 1% formic acid (v/v). No internal standard was used. […] The column temperature was maintained at 40° C.
# All of the PK data presented in Table 3 was generated using the same animal protocols and similar bioanalytical methods. Different animal protocols and improved bioanalytical methods were used to generate the data in Table 4 (all PK fitiing was performed using WinNonlin software).
# [3] = Non-human primate pharmacokinetics; type: in vivo, cynomolgus monkeys
# Experimental: Non-Human Primate Pharmacokinetics
# In-life was performed by Calvert Laboratories (Scott Township, Pa.). […] Upon IV dosing, 1 ml blood samples were collected at 0.083, 0.167, 0.25, 0.5, 1, 2, 4, 8, 16 and 24 h post-dose into chilled tubes containing K2EDTA, mixed by inversion, and centrifuged (3000 rpm, 4° C., 15 min) to isolate plasma. Plasma was stored at −80° C. until bioanalysis.
# Following a 13-day washout period, study animals were administered a single subcutaneous dose of CPT31 (10 mg/ml in 50 mM HEPES, pH 7.4) into the loose skin of the back between the shoulder blades at a dose of 3 mg/kg. Plasma samples were collected at pre-dose, 0.25, 0.5, 1, 2, 4, 8, 16, 24 and 48 hours post-dose. Collected blood samples were treated as described above. The pre-dose sample confirmed drug levels were below the lower limit of quantification (5.00 nM).
# CPT31 in Monkey Plasma-Calvert Study
# The internal standard, CPT31-IS was synthesized with an additional glycine on each PIE12-2 monomer (three in total), increasing the molecular mass by 171.1 Da. Plasma samples (200 μl) were spiked with CPT31-IS to a concentration of either 60 or 150 nM, then precipitated in 2% NH4OH in acetonitrile (500 μl). Following centrifugation, the supernatant was applied to a strong anion exchange solid-phase extraction 96-well plate (SOLAμ SAX, 2 mg/ml 96-well plate). The anion exchange plate was first conditioned with 400 μl of 2% NH4OH in methanol, followed by 400 μl of 2% NH4OH in water. The precipitated supernatant (500 μl) was then loaded into each well, followed by washing with 500 μl of 2% NH4OH in water, then 500 μl of methanol. Sample was eluted using two 50 μl aliquots of 2% formic acid in methanol.
# LC-MS analysis was conducted using an Agilent Infinity 1290 HPLC system paired to an Agilent 6450A Q-TOF mass spectrometer equipped with a Dual Jet Spray ESI source. […] Samples were analyzed against a standard curve of CPT31 from 5.00-2,000 nM.
# [4] = Solubility in standard aqueous buffers
# [5] = target: HSA (Homo sapiens, UniProt P02768); conditions: cited from earlier work
# Chain of HSA (P02768 25-609): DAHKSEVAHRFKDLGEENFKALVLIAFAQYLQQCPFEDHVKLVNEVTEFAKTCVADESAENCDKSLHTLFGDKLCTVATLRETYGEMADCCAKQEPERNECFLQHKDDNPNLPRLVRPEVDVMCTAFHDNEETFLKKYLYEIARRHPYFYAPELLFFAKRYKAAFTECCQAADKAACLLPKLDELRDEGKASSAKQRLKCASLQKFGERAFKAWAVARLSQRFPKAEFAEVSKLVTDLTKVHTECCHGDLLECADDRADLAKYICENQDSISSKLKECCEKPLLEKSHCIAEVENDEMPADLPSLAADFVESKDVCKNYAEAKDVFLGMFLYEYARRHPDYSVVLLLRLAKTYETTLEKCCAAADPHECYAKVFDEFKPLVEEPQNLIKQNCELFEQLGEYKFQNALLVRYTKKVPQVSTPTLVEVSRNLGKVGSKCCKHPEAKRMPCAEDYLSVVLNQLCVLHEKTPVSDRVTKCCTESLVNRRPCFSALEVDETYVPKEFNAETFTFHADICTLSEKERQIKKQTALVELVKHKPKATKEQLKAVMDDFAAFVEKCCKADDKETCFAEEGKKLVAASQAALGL
# [6] = humans; cited from earlier work
# [7] = Rodent pharmacokinetics of PIE12-trimer and conjugates (Table 3 protocol); type: in vivo, Sprague Dawley rats; conditions: rats
# Experimental: At each timepoint, plasma was obtained using lithium heparin.
# Samples were spiked with an internal standard then precipitated with two volumes of 98% acetonitrile/2% Formic acid. Supernatants were analyzed by LC/MS/MS using an Agilent HPLC system (Waters X-Bridge BEH C18 column) paired to an AB Sciex API 3000 triple-quad mass spectrometer using MRM methods. Lipid conjugates required lower source temperatures (300° C. vs 500° C.) for improved reproducibility.
# [8] = rats, IV, 1.0 mg/kg, plasma, median, updated protocols
# [9] = rats, SC, 1.0 mg/kg, plasma, median, updated protocols
# [10] = rat, in vivo, IV, 1.0 mg/kg, plasma, median
# [11] = rat, in vivo, SC, 1.0 mg/kg, plasma, median
compound,measurement,setting,value
CPT24-5kD: includes 5 kDa of linear polydisperse PEG between PIE12-trimer and thiocholesterol,"antiviral potency, in words",[1],comparable to CPT24
same,prolonged half-life compared to CPT24,"[2]; rats, IV",3.5 fold
same,AUC(0-inf),[2]; [8],4.578 µM·h
same,C0,[2]; [8],1100 nM
same,Cl (obs),[2]; [8],0.243 mL/min/kg
same,T1/2,[2]; [8],5.62 h
same,Vz (obs),[2]; [8],0.118 L/kg
same,prolonged half-life compared to CPT24,"[2]; rats, SC",1.8 fold
same,AUC(0-inf),[2]; [9],1.557 µM·h
same,Cmax,[2]; [9],89 nM
same,T1/2,[2]; [9],7.21 h
"I: Ac-[dH][dP][dC][dD][dY][dP][dE][dW][dQ][dW][dL][dC][dE][dL]G[PEG4][dK]-NH2 / II: Ac-[dH][dP][dC][dD][dY][dP][dE][dW][dQ][dW][dL][dC][dE][dL]G[PEG4][dK]-NH2 / III: Ac-[dH][dP][dC][dD][dY][dP][dE][dW][dQ][dW][dL][dC][dE][dL]G[PEG4][dK]-NH2 (disulfide I:3-I:12, II:3-II:12, III:3-III:12; linker I:17-II:17-III:17 via X1) [CPT31]",half-life,"[3]; cynomolgus monkey, in vivo, non-human primates, SC, read-out: subcutaneous half-life (converted)",18 h
same,bioavailability,"[3]; cynomolgus monkey, male cynomolgus monkeys, SC, 3.0 mg/kg, plasma, median",80.4%
same,adverse events,"[3]; cynomolgus monkeys, IV 1 mg/kg then SC 3 mg/kg",no adverse events were observed
same,solubility,[4],~40 mg/mL
same,bioavailability,"[2]; rat, in vivo, sc, 1 mg/kg",55%
same,half-life,"[2]; rat, in vivo, iv, 1 mg/kg",3.25 h
same,half-life,"[2]; rat, in vivo, sc",5.4 h
enfuvirtide,"HSA binding, in words",[5],highly HSA bound
same,"volume of distribution, in words",[6],reduced volume of distribution
CC(=O)N[C@H](Cc1c[nH]cn1)C(=O)N1CCC[C@@H]1C(=O)N[C@@H]1CSSC[C@H](C(=O)N[C@H](CCC(=O)O)C(=O)N[C@H](CC(C)C)C(=O)NCC(=O)N[C@H](CCCCNC(=O)CCOCCOCCOCCOCCNC(=O)CCOCC(COCCC(=O)NCCOCCOCCOCCOCCC(=O)NCCCC[C@@H](NC(=O)CNC(=O)[C@@H](CC(C)C)NC(=O)[C@@H](CCC(=O)O)NC(=O)[C@H]2CSSC[C@@H](NC(=O)[C@H]3CCCN3C(=O)[C@@H](Cc3c[nH]cn3)NC(C)=O)C(=O)N[C@H](CC(=O)O)C(=O)N[C@H](Cc3ccc(O)cc3)C(=O)N3CCC[C@@H]3C(=O)N[C@H](CCC(=O)O)C(=O)N[C@H](Cc3c[nH]c4ccccc34)C(=O)N[C@H](CCC(N)=O)C(=O)N[C@H](Cc3c[nH]c4ccccc34)C(=O)N[C@H](CC(C)C)C(=O)N2)C(N)=O)(COCCC(=O)NCCOCCOCCOCCOCCC(=O)NCCCC[C@@H](NC(=O)CNC(=O)[C@@H](CC(C)C)NC(=O)[C@@H](CCC(=O)O)NC(=O)[C@H]2CSSC[C@@H](NC(=O)[C@H]3CCCN3C(=O)[C@@H](Cc3c[nH]cn3)NC(C)=O)C(=O)N[C@H](CC(=O)O)C(=O)N[C@H](Cc3ccc(O)cc3)C(=O)N3CCC[C@@H]3C(=O)N[C@H](CCC(=O)O)C(=O)N[C@H](Cc3c[nH]c4ccccc34)C(=O)N[C@H](CCC(N)=O)C(=O)N[C@H](Cc3c[nH]c4ccccc34)C(=O)N[C@H](CC(C)C)C(=O)N2)C(N)=O)NC(=O)CCOCCOCCOCCOCCOCCOCCOCCOCCOCCOCCOCCOCCOCCOCCOCCOCCOCCOCCOCCOCCOCCOCCOCCOCCNC(=O)CCN2C(=O)CC(S[C@H]3CC[C@@]4(C)C(=CC[C@H]5[C@@H]6CC[C@H]([C@H](C)CCCC(C)C)[C@@]6(C)CC[C@@H]54)C3)C2=O)C(N)=O)NC(=O)[C@@H](CC(C)C)NC(=O)[C@@H](Cc2c[nH]c3ccccc23)NC(=O)[C@@H](CCC(N)=O)NC(=O)[C@@H](Cc2c[nH]c3ccccc23)NC(=O)[C@@H](CCC(=O)O)NC(=O)[C@H]2CCCN2C(=O)[C@@H](Cc2ccc(O)cc2)NC(=O)[C@@H](CC(=O)O)NC1=O (some centres unmarked) [CPT24],solubility,[4],~40 mg/mL
same,bioavailability,"[2]; rat, in vivo, sc, 1 mg/kg",51.4%
same,AUC(0-inf),"[2]; rat, in vivo, iv, 1 mg/kg",4.66 µM·h
same,C0,"[2]; rat, in vivo, iv, 1 mg/kg",4530 nM
same,Vd,"[2]; rat, in vivo, iv, 1 mg/kg",0.057 L/kg
same,half-life,"[2]; rat, in vivo, iv, 1 mg/kg",1.62 h
same,half-life,"[2]; rat, in vivo, sc",3.8 h
same,AUC(0-inf),"[2]; rat, in vivo, sc, 1 mg/kg",2.39 µM·h
same,Cmax,"[2]; rat, in vivo, sc, 1 mg/kg",395 nM
same,Tmax,"[2]; rat, in vivo, sc, 1 mg/kg",2 h
same,half-life,"[2]; rat, in vivo, sc, 1 mg/kg",3.88 h
same,F,[2]; [9],51%
same,bioavailability,"[7]; Sprague Dawley, rat, SC, 1.0 mg/kg, plasma, median",73%
same,AUC(0-inf),[7]; [10],2.39 µM·h
same,C0,[7]; [10],1110 nM
same,clearance,"[7]; rat, in vivo, IV, 1.0 mg/kg, plasma, median, read-out: Cl (obs) (converted)",0.783 mL/min/kg
same,half-life,"[7]; rat, in vivo, IV, 1.0 mg/kg, plasma, median, read-out: T1/2 (converted)",1.77 h
same,Vd,"[7]; rat, in vivo, IV, 1.0 mg/kg, plasma, median, read-out: Vz (obs)",0.13 L/kg
same,half-life,"[7]; rat, in vivo, IV, read-out: IV half-life (converted)",1.8 h
same,AUC(0-inf),[7]; [11],1.75 µM·h
same,Cmax,[7]; [11],304 nM
same,Tmax,[7]; [11],4 h
same,half-life,"[7]; rat, in vivo, SC, 1.0 mg/kg, plasma, median, read-out: T1/2 (converted)",2.71 h
same,half-life,"[7]; rat, in vivo, SC, read-out: SC half-life (converted)",2.7 h
same,increase of IV half-life vs PIE12-trimer,[7]; IV,> 3 fold
same,reduction of clearance vs PIE12-trimer,[7]; IV,~18 fold
same,extension of SC (apparent) half-life vs PIE12-trimer,"[7]; SC, terminal phase elimination",> 3 fold
